Measured values: patent US20180016327A1 (Chugai, published 2018)

B1: CFP0021 21L 93R (antibody, V domains shown)
VH: QVQLVESGGGLVQPGGSLRLSCAASGFTFSDHYMDWVRQAPGKGLEWVGRTRNKANSYTTEYAASVKGRFTISRDDSKNSLYLQMNSLKTEDTAVYYCARTGMMYWGIFDVWGQGTLVTVSS
VL: DIQMTQSPSSLSASVGDRVTITCRASQSIEDDLAWYQQKPGKAPKLLIYHASTLQSGVPSRFSGSGSGTDFTLTISSLQPEDFATYYCQQHDRYPLTFGQGTKVEIK
B2: CFP0017 17L 34N (antibody, V domains shown)
VH: QVQLVQSGAEVKKPGSSVKVSCKASGGTFSSYAISWVRQAPGQGLEWMGGIIPIFGTANYAQKFQGRVTITADESTSTAYMELSSLRSEDTAVYYCARGGWWGGALDYWGQGTLVTVSS
VL: DIQMTQSPSSLSASVGDRVTITCRASQSIEDDLNWYQQKPGKAPKLLIYHASSLQSGVPSRFSGSGSGTDFTLTISSLQPEDFATYYCQQSDSYPLTFGQGTKVEIK
B3: CFP0017 17L 53H (antibody, V domains shown)
VH: QVQLVQSGAEVKKPGSSVKVSCKASGGTFSSYAISWVRQAPGQGLEWMGGIIPIFGTANYAQKFQGRVTITADESTSTAYMELSSLRSEDTAVYYCARGGWWGGALDYWGQGTLVTVSS
VL: DIQMTQSPSSLSASVGDRVTITCRASQSIEDDLAWYQQKPGKAPKLLIYHASHLQSGVPSRFSGSGSGTDFTLTISSLQPEDFATYYCQQSDSYPLTFGQGTKVEIK
B4: CFP0017 17L 53N (antibody, V domains shown)
VH: QVQLVQSGAEVKKPGSSVKVSCKASGGTFSSYAISWVRQAPGQGLEWMGGIIPIFGTANYAQKFQGRVTITADESTSTAYMELSSLRSEDTAVYYCARGGWWGGALDYWGQGTLVTVSS
VL: DIQMTQSPSSLSASVGDRVTITCRASQSIEDDLAWYQQKPGKAPKLLIYHASNLQSGVPSRFSGSGSGTDFTLTISSLQPEDFATYYCQQSDSYPLTFGQGTKVEIK
B5: CFP0021 21L 96W (antibody, V domains shown)
VH: QVQLVESGGGLVQPGGSLRLSCAASGFTFSDHYMDWVRQAPGKGLEWVGRTRNKANSYTTEYAASVKGRFTISRDDSKNSLYLQMNSLKTEDTAVYYCARTGMMYWGIFDVWGQGTLVTVSS
VL: DIQMTQSPSSLSASVGDRVTITCRASQSIEDDLAWYQQKPGKAPKLLIYHASTLQSGVPSRFSGSGSGTDFTLTISSLQPEDFATYYCQQHDSYPWTFGQGTKVEIK
B6: CFP0021 21L 96F (antibody, V domains shown)
VH: QVQLVESGGGLVQPGGSLRLSCAASGFTFSDHYMDWVRQAPGKGLEWVGRTRNKANSYTTEYAASVKGRFTISRDDSKNSLYLQMNSLKTEDTAVYYCARTGMMYWGIFDVWGQGTLVTVSS
VL: DIQMTQSPSSLSASVGDRVTITCRASQSIEDDLAWYQQKPGKAPKLLIYHASTLQSGVPSRFSGSGSGTDFTLTISSLQPEDFATYYCQQHDSYPFTFGQGTKVEIK
B7: CFP0021 21L 96H (antibody, V domains shown)
VH: QVQLVESGGGLVQPGGSLRLSCAASGFTFSDHYMDWVRQAPGKGLEWVGRTRNKANSYTTEYAASVKGRFTISRDDSKNSLYLQMNSLKTEDTAVYYCARTGMMYWGIFDVWGQGTLVTVSS
VL: DIQMTQSPSSLSASVGDRVTITCRASQSIEDDLAWYQQKPGKAPKLLIYHASTLQSGVPSRFSGSGSGTDFTLTISSLQPEDFATYYCQQHDSYPHTFGQGTKVEIK
B8: CFP0021 21L 94S (antibody, V domains shown)
VH: QVQLVESGGGLVQPGGSLRLSCAASGFTFSDHYMDWVRQAPGKGLEWVGRTRNKANSYTTEYAASVKGRFTISRDDSKNSLYLQMNSLKTEDTAVYYCARTGMMYWGIFDVWGQGTLVTVSS
VL: DIQMTQSPSSLSASVGDRVTITCRASQSIEDDLAWYQQKPGKAPKLLIYHASTLQSGVPSRFSGSGSGTDFTLTISSLQPEDFATYYCQQHDSSPLTFGQGTKVEIK
B9: CFP0021 21L 94F (antibody, V domains shown)
VH: QVQLVESGGGLVQPGGSLRLSCAASGFTFSDHYMDWVRQAPGKGLEWVGRTRNKANSYTTEYAASVKGRFTISRDDSKNSLYLQMNSLKTEDTAVYYCARTGMMYWGIFDVWGQGTLVTVSS
VL: DIQMTQSPSSLSASVGDRVTITCRASQSIEDDLAWYQQKPGKAPKLLIYHASTLQSGVPSRFSGSGSGTDFTLTISSLQPEDFATYYCQQHDSFPLTFGQGTKVEIK
B10: CFP0021 21L 94W (antibody, V domains shown)
VH: QVQLVESGGGLVQPGGSLRLSCAASGFTFSDHYMDWVRQAPGKGLEWVGRTRNKANSYTTEYAASVKGRFTISRDDSKNSLYLQMNSLKTEDTAVYYCARTGMMYWGIFDVWGQGTLVTVSS
VL: DIQMTQSPSSLSASVGDRVTITCRASQSIEDDLAWYQQKPGKAPKLLIYHASTLQSGVPSRFSGSGSGTDFTLTISSLQPEDFATYYCQQHDSWPLTFGQGTKVEIK
B11: CFP0021 21L 96P (antibody, V domains shown)
VH: QVQLVESGGGLVQPGGSLRLSCAASGFTFSDHYMDWVRQAPGKGLEWVGRTRNKANSYTTEYAASVKGRFTISRDDSKNSLYLQMNSLKTEDTAVYYCARTGMMYWGIFDVWGQGTLVTVSS
VL: DIQMTQSPSSLSASVGDRVTITCRASQSIEDDLAWYQQKPGKAPKLLIYHASTLQSGVPSRFSGSGSGTDFTLTISSLQPEDFATYYCQQHDSYPPTFGQGTKVEIK
B12: CFP0021 21L 94H (antibody, V domains shown)
VH: QVQLVESGGGLVQPGGSLRLSCAASGFTFSDHYMDWVRQAPGKGLEWVGRTRNKANSYTTEYAASVKGRFTISRDDSKNSLYLQMNSLKTEDTAVYYCARTGMMYWGIFDVWGQGTLVTVSS
VL: DIQMTQSPSSLSASVGDRVTITCRASQSIEDDLAWYQQKPGKAPKLLIYHASTLQSGVPSRFSGSGSGTDFTLTISSLQPEDFATYYCQQHDSHPLTFGQGTKVEIK
B13: CFP0021 21L 96I (antibody, V domains shown)
VH: QVQLVESGGGLVQPGGSLRLSCAASGFTFSDHYMDWVRQAPGKGLEWVGRTRNKANSYTTEYAASVKGRFTISRDDSKNSLYLQMNSLKTEDTAVYYCARTGMMYWGIFDVWGQGTLVTVSS
VL: DIQMTQSPSSLSASVGDRVTITCRASQSIEDDLAWYQQKPGKAPKLLIYHASTLQSGVPSRFSGSGSGTDFTLTISSLQPEDFATYYCQQHDSYPITFGQGTKVEIK
B14: CFP0021 21L 94T (antibody, V domains shown)
VH: QVQLVESGGGLVQPGGSLRLSCAASGFTFSDHYMDWVRQAPGKGLEWVGRTRNKANSYTTEYAASVKGRFTISRDDSKNSLYLQMNSLKTEDTAVYYCARTGMMYWGIFDVWGQGTLVTVSS
VL: DIQMTQSPSSLSASVGDRVTITCRASQSIEDDLAWYQQKPGKAPKLLIYHASTLQSGVPSRFSGSGSGTDFTLTISSLQPEDFATYYCQQHDSTPLTFGQGTKVEIK
B15: CFP0021 21L 96Y (antibody, V domains shown)
VH: QVQLVESGGGLVQPGGSLRLSCAASGFTFSDHYMDWVRQAPGKGLEWVGRTRNKANSYTTEYAASVKGRFTISRDDSKNSLYLQMNSLKTEDTAVYYCARTGMMYWGIFDVWGQGTLVTVSS
VL: DIQMTQSPSSLSASVGDRVTITCRASQSIEDDLAWYQQKPGKAPKLLIYHASTLQSGVPSRFSGSGSGTDFTLTISSLQPEDFATYYCQQHDSYPYTFGQGTKVEIK

molecular target: T1, human C5 (human, UniProt P01031 19-673; P01031 678-1676, Beta and alpha chains are disulfide-linked and the protein is glycosylated.); test: Biacore, captured antibody, pH 7.4, 37 C;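 also: biacore binding response of anti-C5 antibody light chain variants captured on chip with human C5 injected, ACES running buffer containing 1.2 mM CaCl₂, parent light chain antibody set to 100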
T1 construct: Either in-house recombinant C5 or plasma derived C5 (CALBIOCHEM) was used; also called recombinant human C5; plasma derived human C5

Binder | % binding (parent = 100)
B1 | 5.2%
B2 | -9.4%
B3 | 69.6%
B4 | 52.9%
B5 | 0.8%
B6 | 39.9%
B7 | -0.7%
B8 | 0.3%
B9 | 0.9%
B10 | 1.3%
B11 | 4.3%
B12 | 2.6%
B13 | 19.7%
B14 | 1.3%
B15 | 1.4%
